Data taken from patent publication US20090149343A1, “HISTONES” (priority 2006, published 2009).

Target: T1, micro-array bound histone H3 peptides (Homo sapiens, UniProt P68431)
T1 construct: 48 discrete histone H3 peptides containing a wide range of histone modifications at defined residues; made in house; host or cells: peptides by chemical solid phase synthesis
Experiment: Histone peptide microarray-based methylation assay (SET 7/9)
Assay type: biochemical
Settings: 12 hrs, 30° C. methylation buffer; 100 uM, 70 ul SET 7/9; FIG. 15
Protocol: FIG. 15. SET 7/9 dependent methylation of micro-array bound histone peptides. Microarray slides containing duplicate arrays (dashed boxes) of 48 discrete histone H3 peptides containing a wide range of histone modifications at defined residues. These were incubated with the methyl-transferase enzyme SET7/9 (Bottom panel) or a buffer containing no enzyme (Control, top panel), and subsequently probed with an anti-H3K4me1 antibody.
Methylation assays were performed using the recombinant human histone methyl-transferase SET 7/9 under standard methylation conditions. Assays on the microarrays of the invention were performed under coverslips, enabling small volumes of reagent usage per assay (70 μl). Enzyme-mediated methylation is detected by a histone methyl specific antibody (i.e. anti-histone H3 mono-methyl K4) by standard Western blotting conditions.
Importantly, reproducible patterns of modification are generated on the different peptides (the dashed boxes contain duplicate arrays of 48 epitope spots) allowing users to analyse the effects of defined modifications on methyl transfer by the enzyme.

B1: SET 7/9: recombinant human histone methyl-transferase SET 7/9 (protein)
chain: MDSDDEMVEEAVEGHLDDDGLPHGFCTVTYSSTDRFEGNFVHGEKNGRGKFFFFDGSTLEGYYVDDALQGQGVYTYEDGGVLQGTYVDGELNGPAQEYDTDGRLIFKGQYKDNIRHGVCWIYYPDGGSLVGEVNEDGEMTGEKIAYVYPDERTALYGKFIDGEMIEGKLATLMSTEEGRPHFELMPGNSVYHFDKSTSSCISTNALLPDPYESERVYVAESLISSAGEGLFSKVAVGPNTVMSFYNGVRITHQEVDSRDWALNGNTLSLDEETVIDVPEPYNHVSKYCASLGHKANHSFTPNCIYDMFVHPRFGPIKCIRTLRAVEADEELTVAYGYDHSPPGKSGPEAPEWYQVELKAFQATQQK
- enzyme-mediated methylation of array peptides detected by anti-histone H3 mono-methyl K4 antibody: specific enzymatic methyl transferase activity occurs
